Laboratory results as given in patent US20240084003A1 (SIMCERE ZAIMING PHARMACEUTICAL, published 2024).

T1: monkey CD22 protein (ACROBiosystems, catalog number SI2-R52Ha) (monkey, UniProt F6W485 20-688)
T1 construct: commercial protein; also called monkey CD22-ECD; monkey CD22-ECD-His
T1 sequence: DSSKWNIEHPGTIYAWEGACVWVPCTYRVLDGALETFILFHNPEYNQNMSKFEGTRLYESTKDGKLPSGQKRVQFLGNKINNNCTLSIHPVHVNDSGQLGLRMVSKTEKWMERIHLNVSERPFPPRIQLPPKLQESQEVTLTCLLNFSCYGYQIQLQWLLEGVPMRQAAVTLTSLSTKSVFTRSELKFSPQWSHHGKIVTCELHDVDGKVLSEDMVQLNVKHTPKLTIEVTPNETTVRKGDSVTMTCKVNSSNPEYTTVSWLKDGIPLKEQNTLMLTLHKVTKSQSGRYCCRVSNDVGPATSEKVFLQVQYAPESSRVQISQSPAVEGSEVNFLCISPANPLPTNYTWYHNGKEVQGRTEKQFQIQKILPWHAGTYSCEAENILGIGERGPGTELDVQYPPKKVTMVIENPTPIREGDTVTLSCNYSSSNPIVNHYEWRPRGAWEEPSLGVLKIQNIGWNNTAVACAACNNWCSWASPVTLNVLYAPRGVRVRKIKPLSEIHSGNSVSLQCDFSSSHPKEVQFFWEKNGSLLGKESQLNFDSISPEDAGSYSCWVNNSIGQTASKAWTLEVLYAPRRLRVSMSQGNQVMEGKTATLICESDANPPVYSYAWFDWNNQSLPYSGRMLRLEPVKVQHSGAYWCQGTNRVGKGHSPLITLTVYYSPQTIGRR

B1: F1.216.2 (antibody, human IgG1, kappa, V domains shown)
VH: QVQLQQSGPEVVRPGASVKISCKASGYAFSSSWMNWMKQRPGKALEWIGRIYPGDGDTNYSGEFKVKATLTADKSSSTAYMQLSSLTSEDSAVYFCAREGSYYSNPWYFDYWGQGTTLTVSS
VL: DVLVTQTPLSLPVSLGDQASISCRSSQSIVQSNGDTYLEWYLQKPGQSPKLLIYKVSNRFSGVPDRFSGSGSGTDFTLKISRVEAEDLGVYYCFQGSHVPFTFGSGTKLEIKR
notes: human-murine chimeric IgG1 kappa
B2: F1.200.11 (antibody, human IgG1, kappa, V domains shown)
VH: QNQLVQSGPELKKPGETVKISCKASGYTFTTAGMQWVQKMPGKGFKWIGWINTLSGEPKYAEDFKGRFAFSLETSATTAYLQISNLKNEDTATYFCARAYYSNLYWYFDVWGTGTTVTVSS
VL: DIVMTQSQKFMSTTVGDRVTITCKASQNVVTAVAWYQQKPGQSPKVLIYSASNRYSGVPDRFTGSGSGTDFTLTISNMHSEDLANYFCHQYSSYPFTFGSGTKLEIKR
notes: as for B1
B3: F1.192.1 (antibody, human IgG1, kappa, V domains shown)
VH: AVQLQQSGVELVRPGASVKLSCTGSDFNIKEDYIHWVKQRPEQGLEWIGWIDPENGDTEYASKFQGKATITADTSSNTAYLQLSSLTSEDTAVYYCATYGSLDYWGQGTTLTVSS
VL: DIKMTQSPSSMYAFLGERVTITCKASQGINSFLTWFQQKPGKSPKTLIYRANRLVDGVPSRFSGSGSGQDYSLTISSLEYEDVGIYYCLQYDEFPRTFGGGTKLEIKR
notes: as for B1
B4: F1.245.2 (antibody, human IgG1, kappa, V domains shown)
VH: EVQLQQSGAELVKPGASVKLSCTGSGFNIKDYYIHWVKQRTEQGLEWMGRIDPEDGETEYAPKFQDEATITSDTSSNTAYLQLSSLTYEDTAVYYCAREAAGYFYRGSSYGYFDVWGTGTTVTVSS
VL: DFQMTQTTSFLSASLGDRVTISCSASQDISNYLNWYQQKPDGTVKLLIYYTSSLHSGVPSRFSGSGSGTDYSLTISNLEPEDIATYYCQQYSMLPYTFGGGTKLEMER
notes: as for B1
B5: F1.60.9 (antibody, human IgG1, kappa, V domains shown)
VH: QVQLKESGPGLVAPSQSLSITCTVSGLSLNNYGVSWVRQPPGKGLEWLGVIWGDGSTNYHSALISRLSISKDNSKSQVFLKLNSLHTDDTATYYCAINWGDYWGQGTTLIVSS
VL: DIKMTQSPSSMNASLGERVTITCKASQDINSYLSWFQQKPGKSPKILIYRANRLIDGVPSRFSGSGSGQDYSLTISSLEYEDMGIYYCLQYGVFPLTFGAGTKLELKR
notes: as for B1
B6: F1.172.13 (antibody, human IgG1, kappa, V domains shown)
VH: QVTLKESGPGILQSSQTLSLTCSFSGFSLSTSGMGVSWIRQPSGKGLEWLAHIYWDDDKRYNPSLKSRLTISKDTSRNQVFLKITSVDTADTATYYCARAPPPNWDEYYFDYWGQGTTLTVSS
VL: DIQMTQSPASLSASVGETVTITCRASGNIHNSLAWYQQKQGKSPQLLVHNAKTLADGVPSRFSGSGSGTQYSLKINSLQPEDFGSYYCQHFWSTPPFGGGTKLEIKR
notes: as for B1
B7: F1.17.1 (antibody, human IgG1, kappa, V domains shown)
VH: QVQLKESGPGLVAPSQSLSITCTVSGFSLSRYTVHWVRQPPGKGLEWLGMIWGGGSTDYNSALKSRLSISKDNSKSQVFLKMNSLQTDDTAMYYCARPHDFDAGGFAYWGQGTLVTVSA
VL: QIVLTQSPAILSTSPGEKVTMTCSASSRVNYMYWYQQKPGSSPRLLIYDTSNLASGVPVRFSGSGSGTSYSLTISRMEAEDAATYYCQQWTSYPLTFGAGTKLELKR
notes: as for B1
B8: F1.257.3 (antibody, human IgG1, kappa, V domains shown)
VH: QVQLQQSGPELARPGASVKLSCKASGYTFTSYGISWVKQRTGQDLEWIGEIYPKLGTTYYNEKFKDKATLTTDRSSSTAYMALRSLTSEDSAVYFCACPHYYATRGGDYWGQGTTLTVSS
VL: EIVLTQSPATLSVTPGDSVTFSCRASQSISNHLHWYQQKSHESPRLLIRYASQSISGIPSRFSGSGSGTDFTLSLSSVETEDFGVYFCQQSHSWPYTFGGGTKLEIAR
notes: human-murine chimeric IgG1 kappa; VL name legible
B9: F1.62.10 (antibody, human IgG1, kappa, V domains shown)
VH: QVQLQQSGPELVKPGASVKISCKASGYEFSSIWMNWVKQRPGEGLEWIGRIFPGDGEINYNEKFKGKATLTADRSSTTAYMQLSSLTSEDSAVYFCAGWRIYYGTYGAMDYWGQGTSVTVSS
VL: DIQMTQITSSLSASLGDRVTISCRASQDIGNYLNWYQQKPDGTVKLLIYYTSRLHSGVPSRFSGSGSRTDYSLTISNLQQEDIATYFCQQGNTLPWTFGGGTKLEIKR
notes: as for B1

Legend:
[1] = biological target: T1, monkey CD22 protein (ACROBiosystems, …); assay: ELISA, coated monkey CD22 protein, antibody 0.01 nM
Procedure, shortened: (§1)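 Read-out is TMB absorbance after a 30 min room-temperature development stopped with 1.0 N HCl. It reflects chimeric antibody bound to plate-coated CD22 (2 μg/mL), detected with an HRP-labelled secondary antibody. Antibody and secondary incubations each ran 2 h at 37° C.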

[2] = biological target: T1, monkey CD22 protein (ACROBiosystems, …); assay: ELISA, coated monkey CD22 protein, antibody 0.0001 nM
Procedure, shortened: as §1

[3] = biological target: T1, monkey CD22 protein (ACROBiosystems, …); assay: ELISA, coated monkey CD22 protein, antibody 100 nM
Procedure, shortened: as §1

[4] = biological target: T1, monkey CD22 protein (ACROBiosystems, …); assay: ELISA, coated monkey CD22 protein, antibody 0.001 nM
Procedure, shortened: as §1

[5] = biological target: T1, monkey CD22 protein (ACROBiosystems, …); assay: ELISA, coated monkey CD22 protein, antibody 0.1 nM
Procedure, shortened: as §1

[6] = biological target: T2, CD22 on cynomolgus monkey peripheral blood B cells (cynomolgus monkey (Macaca fascicularis)); assay: FACS, cynomolgus PBMC, CD20+ B cells, antibody 100 nM
T2 construct: whole, on cells; also called cynomolgus monkey B cells
Procedure, shortened: (§2)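 By flow cytometry, the readout is the fraction of CD20-gated B cells that are positive for chimeric antibody. Ficoll-isolated monkey PBMC were incubated 1 h at room temperature with anti-CD20 plus test antibody (1, 10 or 100 nM), then labelled with APC anti-human IgG Fc secondary for 30 min in the dark.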

[7] = biological target: T1, monkey CD22 protein (ACROBiosystems, …); assay: ELISA, coated monkey CD22 protein, antibody 10 nM
Procedure, shortened: as §1

[8] = biological target: T1, monkey CD22 protein (ACROBiosystems, …); assay: ELISA, coated monkey CD22 protein, antibody 0.00001 nM
Procedure, shortened: as §1

[9] = biological target: T2, CD22 on cynomolgus monkey peripheral …; assay: FACS, cynomolgus PBMC, CD20+ B cells, antibody 10 nM
Procedure, shortened: as §2

[10] = biological target: T2, CD22 on cynomolgus monkey peripheral …; assay: FACS, cynomolgus PBMC, CD20+ B cells, antibody 1 nM
Procedure, shortened: as §2

Binder | OD450 [1] [OD450] | OD450 [2] [OD450] | OD450 [3] [OD450] | OD450 [4] [OD450] | OD450 [5] [OD450] | Proportion of chimeric antibody positive cells to B cells (%) [6] [%] | OD450 [7] [OD450] | OD450 [8] [OD450] | Proportion of chimeric antibody positive cells to B cells (%) [9] [%] | Proportion of chimeric antibody positive cells to B cells (%) [10] [%]
B1 | 2.04 | 0.21 | 1.94 | 0.91 | 2.24 | 34 | 2.15 | 0.09 | 25 | 22
B2 | 0.19 | 0.06 | 1.25 | 0.08 | 0.62 | 56 | 1.23 | 0.06 | 37 | 21
B3 | 0.19 | 0.07 | 1.21 | 0.07 | 0.53 | 38 | 0.84 | 0.07 | 30 | 22
B4 | 0.06 | 0.06 | 0.08 | 0.06 | 0.06 | 17 | 0.06 | 0.06 | 17 | 16
B5 | 0.05 | 0.06 | 0.09 | 0.05 | 0.06 | 18 | 0.07 | 0.06 | 16 | 16
B6 | 2.47 | 0.18 | 3.21 | 0.82 | 2.78 | 34 | 2.93 | 0.09 | 31 | 30
B7 | 1.75 | 0.13 | 1.91 | 0.51 | 1.99 | 68 | 2.16 | 0.07 | 62 | 60
B8 | 0.05 | 0.06 | 0.18 | 0.05 | 0.06 | 34 | 0.07 | 0.06 | 20 | 17
B9 | 0.05 | 0.06 | 0.36 | 0.05 | 0.07 | 24 | 0.18 | 0.06 | 19 | 17
